# Measurements published in patent US20210163601A1 (Amgen, published 2021).
# T1: Soluble ASGR-1 (recombinant, biotinylated) (human, UniProt P07306 62-291, limits assumed, biotinylated)
# T1 construct: also called recombinant, soluble ASGR-1 biotinylated protein
# T1 sequence: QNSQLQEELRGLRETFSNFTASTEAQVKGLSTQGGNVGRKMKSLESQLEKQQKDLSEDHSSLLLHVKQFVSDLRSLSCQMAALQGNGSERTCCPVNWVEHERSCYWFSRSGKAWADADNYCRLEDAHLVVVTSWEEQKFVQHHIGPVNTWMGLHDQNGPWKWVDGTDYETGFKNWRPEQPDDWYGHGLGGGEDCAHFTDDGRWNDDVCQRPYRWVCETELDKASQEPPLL
# B1: 56E5 (antibody, V domains shown)
# VH: QVQLVQSGAEVKKPGASVKVSCQASGYTFTGYHMHWVRQAPGQGLEWMGWINPNNNATNYAQKFQGRVTMTRDTSISTAYMELRRLRSDDTAVYHCARDGTSSFDYWGQGTLVTVSS
# VL: DIQMTQSPSSVSASVGDRVTITCRASQGIRKWLAWYQQKPGKAPKLLIYAASSLQSGVPSRFSGSGSGTDFTLTISSLQPEDFATYYCQQANSFPFTFGPGTKVDIK
# notes: Tested as hybridoma supernatant
# B2: 218G4 (antibody, V domains shown)
# VH: QVQLVESGGGVVQPGRSLRLSCAASGFTFSSYGLHWVRQAPGKGLEWVAVIWYDGSNKYYADSVKGRFTISRDNSKNTLYLQMNSLRVEDTAVYYCANWYYYYYGMDVWGQGTTVTVSS
# VL: QSVLTQPPSVSAAPGQKVTISCSGSSSNIGNNYVSWYQQLPGTAPKLLLYDSNKRPSGIPARFSGSKSGTSATLGITGLQTGDEADYYCGTWDSSLNTVVFGGGTKLTVL
# notes: as for B1
# B3: 198D2 (antibody, V domains shown)
# VH: QVQLVESGGGVVQPGRSLRLSCAASGFTFRSYGMHWVRQAPGKGLEWVAVIIYDGSYKYYADSVKGRFTISRDNSKNTLYLQMNSLRAEDTAVYYCARTYSGGMDVWGQGTTVTVSS
# VL: QSVLTQPPSVSAAPGQKVTISCSGSSSNIGSNYVSWYQQLPGTAPKVLIYDNNKRPSGIPDRFSGSKSGTSATLGITGLQTGDEADYYCGTWDSRLNVGVFGGGTKLTVL
# notes: as for B1
# B4: 202A3 (antibody, V domains shown)
# VH: QVQLEQSGAEVKKPGASVKVSCKASGYTFTSYDINWVRQATGQGLEWLGWMNPKRGNTGYAQKFQGRVTMTRNTSISTAHMELSSLRSEDTAVYYCARGRYSREDYYYYYDMDVWGQGTTVTVSS
# VL: DIQMSQSPSSLSASVGDRVTITCRASQGIRNDLGWYQQKPGKAPKRLICAASRLQSGVPSRFSGSGSGTEFTLTISSLQPEDFAIYYCLQHHDYPFTFGPGTKVDIK
# notes: as for B1
# B5: 12D2 (antibody, V domains shown)
# VH: EVQLVESGGGLVKPGGSLRLSCAASGFTFSSYSMNWVRQAPGKGLEWVSSISSSSSYIYYADSVKGRFTISRDNAKNSLYLQMNSLRAEDTAVYYCARLGDYWGQGTLVAVSS
# VL: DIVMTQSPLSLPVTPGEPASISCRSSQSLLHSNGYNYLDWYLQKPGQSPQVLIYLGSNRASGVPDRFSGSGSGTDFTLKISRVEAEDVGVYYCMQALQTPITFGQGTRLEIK
# notes: as for B1
# B6: 193E7 (antibody, V domains shown)
# VH: QVQLQQWGAGLLKPSETLSLTCAVYGGSFSGYFWTWIRQPPGKGLEWIGEINHSGSTNYNPSLKSRVTISVDTSKNQFSLKLSSVTAADTAVYYCARDYGADYWGQGTLVAVSA
# VL: DIQMTQSPSSLSASVGDRVTITCRASQGIRNDLGWYQQKPGKAPKRLIYSASSLQRGVPSRFSGSGSGTEFTLTISSLQPEDFATYYCLQHKRYPLTFGGGTKVEIK
# notes: as for B1
# B7: 7F4 (antibody, V domains shown)
# VH: QLQLQESGPGLVKPSETLSLTCTVSGGSISRSSYYWGWIRQPPGKGLEWIGNIYYSGATYYNPSLKSRVTISVDTSTNQFSLKLSSVTAADTAVYYCARHSGSWSLDYWGQGTLVTVSS
# VL: DIQMTQSPSSLSASVGDRVTITCRTSQGIRNDLGWYQQKPGKAPKRLIYAASNLQSGVPSRFSGSGSGTEFTLTISSLQPEDFATYYCLQHSAYPLTFGGGTKVEIK
# notes: as for B1
# B8: 6G7 (antibody, V domains shown)
# VH: QVQLVESGGGVVQPGRSLRLSCAASGFTFSSYGMHWVRQTPGKGLEWVAIISYVGKNKYYADSVKGRFTISRDNSKNTLYLQMNSLRAEDTAVYYCARRGNSYGGYGMDVWGQGTTVTVSS
# VL: DIQMTQSPSSRSASVGDRVTITCQASQDISNYLNWCQQKPGKALKLLIYDASTLETGVPSRFSGSGSGTDFTFTISSVQPEDIATYYCQQYDNVPITFGQGTRLEIK
# notes: as for B1
# B9: 194C10 (antibody, V domains shown)
# VH: QVQLQQWGAGLLKPSETLSLTCAVSGGSFRYYYWSWIRQPPGKGLEWFGEINHSGSTNYNPSLKSRVTISIDTSKNQFSLKLRSVTAADTAVYYCARDYGAFDIWGQGTMVTVSS
# VL: EIVLTQSPGTLSLSPGERATLSCRASPSVNSGYLAWYQQKPGQTPRLLIFGASSRATGIPDRFSASGSGADFTLTISRLEPEDFAVYFCQQYESSPWTFGQGTKVEIK
# notes: as for B1
# B10: 176H4 (antibody, V domains shown)
# VH: QVQLVESGGGVVQPGRSLRLSCAASGFTFSSYGMHWVRQAPGKGLEWVAIIWYDGSYKYYADSVKGRFTISRDNSKNTLYLQMSSLRAEDTAVYYCARDAHDFWSGYFAYWGQGALVTVSS
# VL: DIVMTQTPLSLSVTPGQPASISCKSSQSLLHGDGKTYLYWYLQKPGQPPQLLIYEVSNRFSGVPDRFSGSGSGTDFTLKISRVEAEDVGIYYCMQSIQIPWTFGQGTRVEIK
# notes: as for B1
# Target: T1, Soluble ASGR-1 (recombinant, …)
# Test: limiting antigen bead FACS; biotinylated soluble ASGR-1 coated at 2.5 ng/mL on LumAvidin beads;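 note: hybridoma supernatants of ligand-competing antibodies bound to antigen-loaded beads, read by flow cytometry on an iQue Screener in calcium-containing buffer, higher fluorescence meaning stronger relative affinity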
row,Binder,FACS Geomean
1,B1,22600
2,B2,15100
3,B3,1870
4,B4,2150
5,B5,105
6,B6,18300
7,B7,4910
8,B8,2290
9,B9,21900
10,B10,29400
